The values below come from patent publication US20090074766A1, “Methods of inhibiting HIV-2 infection” (priority 2007, published 2009).

Values joined by “and” are separate entries in the source; they are usually repeats but may differ in a detail not shown here. Identical values can stand only once. Like-named read-outs stand apart in the source and are kept apart here.

Assay [1] concerns reporter viruses pseudotyped with HIV-1JR-FL envelope. The class given is cell-based. Details: CI90: unit not given beside the values. As to conditions: for CI50 / CI90: envelope JRFL; for IC90 / IC50: 1st inhibitor alone, HIV-1 envelope JRFL. An excerpt: HIV-1 pseudoparticles (HIV-1pp) are generated in 293T cells by transient coexpression of an HIV-1-based NL4/3luc+env− plasmid and a construct encoding HIV-1JRFL Env. The NL4/3luc+env− plasmid was obtained from the NIH AIDS Research and Reference Reagent Program (Cat. No. 3418), and the HIV-1JRFL Env was inserted into the pcDNA3.1 vector (Invitrogen). Briefly, 293T cells are calcium phosphate transfected with a 1:1 ratio of NL4/3luc+env− reporter vector and Env expression vector in Hepes buffer (Profection Mammalian Transfection Kit, Promega). After 16 h the transfection medium is aspirated and fresh cell culture medium (DMEM with 10% FBS, glutamine and antibiotics) is added and the incubation is continued at 37° C. for an additional 24-32 h. Cell culture supernatants are collected 48 h post-transfection and centrifuged at 1,400 rpm for 10 min to pellet cell debris. The viral supernatant is brought to a final concentration of 5% sucrose and stored aliquoted at −80° C.
U87-CD4-CCR5 cells were obtained from the NIH AIDS Research and Reference Program (Cat. No. 4035). These cells are maintained in culture medium (DMEM with 10% FBS, antibiotics and glutamine) containing 0.3 mg/ml G418 and 0.5 mg/ml puromycin. Cells are grown in T175-cm^2 flasks at 37° C. and diluted 1:5 every 3-4 days. For assay plate preparation, cells are trypsinized and seeded into wells of 96-well tissue-culture treated flat bottom opaque polystyrene plates (Perkin Elmer, Boston, Mass.) at a density of 3×10^3 cells/well. Plates are incubated for no more than 4 h at 37° C. in a humidified 5% CO2 incubator prior to their use in the HIV-1 pp susceptibility assay.
Fifty μl of diluted compound at 4× the desired final concentration are added per well. For compounds solubilized in DMSO, the 4× stock will contain 2% DMSO (such that the final DMSO concentration in the assay is always 0.5% for small molecules). Control wells receiving no compound are included on each plate. In addition, an AZT inhibition control is included in each assay. Compounds are tested individually and at a fixed mass or molar ratio over a broad range of concentrations.
A vial of frozen, aliquoted HIV-1pp is thawed in a 37° C. waterbath and then placed on wet ice. Virus is diluted in cold cell culture medium as necessary to achieve the desired final virus concentration in the HIV-1pp assay (about 10,000 relative light units (rlu) per well). 50 μl of diluted virus are added per well, bringing the final well volume to 200 μl. A no-virus control (minimum or background luminescence) and a no-compound control (maximum luminescence) are included on each plate. The plates are incubated for 72 h at 37° C. in a humidified 5% CO2 incubator followed by processing for luciferase signal (see below).
Assay medium is aspirated and 200 μl of PBS are added to each well. […] Assay plates are then frozen for at least 2 h at −80° C. followed by thawing at room temperature and vigorous mixing with an electronic pipettor. 25 μl from each well are transferred to an opaque 96-well plate (Costar #3922). Four replicates are pooled into the same well on the opaque plate. 100 μl of freshly thawed and reconstituted luciferase substrate (Luciferase Assay System, Promega—Cat. No. E1501) are added to each well of the plate with the electronic pipettor, and luminescence is detected immediately on a Dynex MLX plate reader set to medium gain.
The percent inhibition is derived as follows: [1−(luciferase activity in the presence of drug/luciferase activity in the absence of drug)]×100. IC50 values are determined by fitting the inhibition data with a non-linear, four-parameter, variable slope equation (GraphPad Prism, ver. 4.02; GraphPad Software, San Diego, Calif.). Upper and lower inhibition values are constrained to 100% and 0%, respectively for curve fitting. […]

For another assay, the target named is T1, CCR5 (Homo sapiens, UniProt P51681).
T1 construct: host or cells: CEM.NKR-CCR5 (transduced human T cell leukemia line)
T1 sequence (P51681 whole entry): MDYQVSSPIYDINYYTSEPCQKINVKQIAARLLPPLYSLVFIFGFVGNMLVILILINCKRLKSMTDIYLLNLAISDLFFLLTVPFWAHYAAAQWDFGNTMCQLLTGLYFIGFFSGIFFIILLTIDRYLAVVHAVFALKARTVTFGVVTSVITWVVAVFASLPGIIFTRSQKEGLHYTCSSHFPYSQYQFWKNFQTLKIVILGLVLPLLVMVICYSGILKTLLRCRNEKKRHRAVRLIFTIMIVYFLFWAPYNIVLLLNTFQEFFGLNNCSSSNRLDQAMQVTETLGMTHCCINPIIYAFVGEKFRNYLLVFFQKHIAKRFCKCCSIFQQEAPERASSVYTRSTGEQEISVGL
Nature of the assay: Competition binding: inhibition of PRO 140-PE binding to CEM.NKR-CCR5 cells (flow cytometry). How it is done:
Inhibition was assessed on the basis of both MFI (A) and percent cells gated (B).
Azide was added to block CCR5 internalization during the assay.
In general terms: A flow cytometer gives signals particle by particle.

Another assay concerns R5 HIV-2 310340. Nature of the assay: Inhibition of replication in PBMC cultures, RT activity readout: HIV-2 310340. It counts as cell-based. How it is done:
Viruses: All virus isolates were grown and titered exclusively in stimulated PBMC as described previously. […] The HIV-2 isolates used in this study have been previously described (Owen, S. M., Ellenberger, D., Rayfield, M., Wiktor, S., Michel, P., Grieco, M. H., Gao, F., Hahn, B. H., and Lai, R. B. 1998. Genetically Divergent Strains of Human Immunodeficiency Virus Type 2 Use Multiple Coreceptors for Entry. J Virol 72:5425-5432) and were obtained from the NIH AIDS Research and Reference Reagent Program.
PA14 (Lot # DF-021204) was produced for reagent use in the Research & Development laboratories of Progenics Pharmaceuticals Inc.
Inhibition of HIV-1 and HIV-2 replication in PBMC cultures: PBMC were isolated from 34 healthy blood donors with Ficoll-Hypaque (all media from Cellgro, Herndon, Va.) and depleted of CD8+ cells using RosetteSep CD8 depletion cocktail (StemCell Technologies) according to the manufacturer's instructions. Equal numbers of cells from each donor were then separately stimulated with 5 ug phytohemagglutinin/ml (Sigma, St. Louis, Mo.) or with surface-immobilized anti-CD3 antibody OKT3 in RPMI 1640 medium containing 10% fetal calf serum, 100 Units of interleukin-2/ml (NIH AIDS Research and Reference Reagent Program), glutamine, and antibiotics (PBMC culture medium) as previously described. After 72 hours, equal numbers of PBMC stimulated by one of these two methods from each donor were combined for use in infection assays as follows. […] The virus inoculum was adjusted to 400 to 2,000 times the TCID50 per ml in PBMC culture medium, and a 50-ul aliquot was added to each culture. The inhibitory doses refer to the concentrations of the agents present at this point in the culture, when virus, cells, and inhibitors were all present at their final concentrations. Reverse Transcriptase (RT) activity was measured on Day 7 post infection (pi) for HIV-1 and Day 10 pi for HIV-2 by the Reverse Transcriptase Assay, Colorimetric kit, #11 468 120 910, Roche (Switzerland) according to the manufacturer's instructions with the following exception: neither ultracentrifugation nor PEG precipitation of the culture supernatants was performed before viral lysis.
The inhibition data were analyzed using GraphPad Prism software (GraphPad Software, San Diego, Calif.). A 4-parameter logistic fit was used calculate the concentration of inhibitor that afforded a 50% and a 90% reduction in RT activity. […] The % inhibitions where best-fit curve reached a top plateau, also as calculated by GraphPad Prism software, are reported as well as maximum percent inhibition (MPI). […] Inhibition curves with a poor sigmoid fit (R^2<0.7) were excluded from data analysis.

[2] abbreviates: labelled 1st inhibitor with 2nd inhibitor PRO 140, equimolar (1:10 PRO 140 to zidovudine or nevirapine).

A word on the IC90: it is the point of the concentration-response curve where the effect stands at 90%. As a reminder, the IC50 is the concentration that inhibits the measured activity by half. The EC90 is the concentration at which the effect reaches the 90% level.

Consider `COc1ccnc2[nH]cc(C(=O)C(=O)N3CCN(C(=O)c4ccccc4)C[C@H]3C)c12` [BMS-378806, (R)-N-(benzoyl)-3-methyl-N′-[(4-methoxy-7-azaindol-3-yl)-oxoacetyl]-piperazine], for which, in assay [1] (setting [2]), the CI50 was determined as 1.2 ± 0.38 and the CI90 was found to be 0.74 ± 0.23.
Regarding `COC[C@@H](c1ccc(C(F)(F)F)cc1)N1CCN(C2(C)CCN(C(=O)c3c(C)ncnc3C)CC2)C[C@@H]1C` [SCH-D, 1-[(4,6-dimethyl-5-pyrimidinyl)carbonyl]-4-[4-[2-methoxy-1(R)-4-(trifluoromethyl)phenyl]ethyl-3(S)-methyl-1-piperazinyl]-4-methylpiperidine], the IC90 in assay [1] (read-out: IC90) is 44 nM. In addition, the “percent of cells gated for positive binding of PRO 140-PE” value on CCR5 (result in words (FIG. 12B)) was “little impact”.
In assay [1], `Cc1nnc(C(C)C)n1C1CC2CCC(C1)N2CC[C@H](NC(=O)C1CCC(F)(F)CC1)c1ccccc1` (stereo partly shown) [UK-427,857] returned an IC50 of 7.4 nM and a 90% effect concentration (IC90) of 46 nM. In assay [1] (labelled 1st inhibitor with 2nd inhibitor SCH-D), this molecule registered a CI90 of 1.2 ± 0.15.

B1: PRO 140: humanized IgG4,κ anti-CCR5 monoclonal antibody, humanized version of murine mAb PA14 (antibody, chains of the INN, looked up, V domains shown)
VH: EVQLVESGGGLVKPGGSLRLSCAASGYTFSNYWIGWVRQAPGKGLEWIGDIYPGGNYIRNNEKFKDKTTLSADTSKNTAYLQMNSLKTEDTAVYYCGSSFGSNYVFAWFTYWGQGTLVTVSS
VL: DIVMTQSPLSLPVTPGEPASISCRSSQRLLSSYGHTYLHWYLQKPGQSPQLLIYEVSNRFSGVPDRFSGSGSGTDFTLKISRVEAEDVGVYYCSQSTHVPLTFGQGTKVEIK
B1: in the assay with R5 HIV-2 310340 (HIV-2 310340, R5), the “EC50 (median)” value is 4.7 µg/mL and the “EC90 (median)” value is above 100 µg/mL. Further, the “MPI: Maximum percent inhibition as determined from the plateau of the sigmoidal curve fit” value with R5 HIV-2 310340 (Virus: R5 HIV-2 310340, individual experiments (Source)) is 87% and 74% and 90% and 78%. For the same molecule, the “MPI, Median” value with R5 HIV-2 310340 (Virus: R5 HIV-2 310340, median of experiments, poor curve fits (R^2 < 0.7) excluded) was 83%. Further, in assay [1] (read-out: IC50), the IC50 was 2.2 nM. Moreover, the concentration for an effect of 90% (IC90) in assay [1] (read-out: IC90) came out at 28 nM. Further, in assay [1] (setting [2]), the CI50 amounted to 1.2 ± 0.32 and the CI90 stood at 0.90 ± 0.15. In the assay with CCR5 (based on percent cells gated, 5 nM PRO 140-PE), this molecule yielded an EC90 of 17 nM.
